Data from patent publication US20090324566A1 (published 2009).

Columns and labels:
[1] = biological target: T1, SAGE peptide on HLA-A*24:02 (human); assay: killing
T1 peptide: LYATVIHDI
Method: (§1) The T2 cells, the T2-A24 cells, and T2-A2 cells prepared by transfecting HLA-A0201 gene into T2 cells were washed 3 times with RPMI 1640 medium, and the washed cells were suspended in RPMI 1640 medium so as to have a density of 5×10⁶ cells/mL. P143 or P715 was added to 1 mL each of the above-mentioned cell suspensions so as to have a final concentration of 10 μM, and the mixture was allowed to stand at room temperature for 15 minutes. Thereafter, 1 mL each of RPMI 1640 medium containing 10% FCS was added thereto, and the mixture was incubated at 37° C. for 1 hour. […]
(§2) The ms69 cells, the RNA-transduced ms69 cells, the #2-28 cells, the CD8 positive cells, and the RNA-transduced CD8 cells were washed twice with RPMI 1640 medium, and the washed cells were suspended in RPMI 1640 medium containing 10% FCS so as to have a density of 2×10⁶ cells/mL, 1×10⁶ cells/mL, 5×10⁵ cells/mL, 2.5×10⁵ cells/mL, 1.25×10⁵ cells/mL, and 6.25×10⁴ cells/mL (effector cells), respectively, and a 100 μL portion thereof was put in each well of a 96-well V-bottom plate. […] The mixture was reacted at 37° C. for 4 hours, and thereafter the supernatants were collected by centrifugation, and an amount of ⁵¹Cr released to 100 μL of the supernatant was determined by using a gamma counter. The specific cytotoxic activity was calculated from the measured value of radioactivity according to the following formula.

[2] = biological target: T2, MAGE-A4 peptide on HLA-A*02:01 (human); assay: killing
T2 peptide: NYKRCFPVI
Method: as §1, §2

[3] = biological target: T3, MAGE-A4 peptide on HLA-A*24:02 (human); assay: multimer staining
T3 peptide: NYKRCFPVI

B1: HLA-A24-restricted, MAGE-A4 143-151-specific TCR of CTL clone #2-28 (SEQ ID NOs 1 and 2) (TCR, V domains shown)
Valpha: AQSVSQHNHHVILSEAASLELGCNYSYGGTVNLFWYVQYPGQHLQLLLKYFSGDPLVKGIKGFEAEFIKSKFSFNLRKPSVQWSDTAEYFCAGRGGGNKLTFGTGTQLKVEL
Vbeta: DTGVSQNPRHKITKRGQNVTFRCDPISEHNRLYWYRQTLGQGPEFLTYFQNEAQLEKSRLLSDRFSAERPKGSFSTLEIQRTEQGDSAMYLCASSLAQGAGETQYFGPGTRLLVL
binding result [1]: no recognition | binding result [2]: no recognition | binding result [3]: recognises
